Here are results for three substances from patent USRE43568.

The target in experiment [1] is Fcγ receptors on monocytes (FcγRI and RII) (human). The experiment in a line: FACS on human monocytes, antibody 10 µg/ml.
Experiment [2] addresses human complement C3 (from human pooled serum) (human) (UniProt P01024). The experiment in a line: C3 ELISA, antibody coated, human pooled serum added.
The target in experiment [3] is Fcγ receptors on granulocytes (FcγRII and RIII) (human). The experiment in a line: FACS on human granulocytes, antibody 10 µg/ml.

In the case of “human IgG4 (CLB, the Netherlands), negative control (antibody)”, the % monocytes binding antibody in experiment [1] stood at 9.4%.

“HuMab 002 Fc variant IgG1v2 (L234A; L235A) (antibody)” had a Bmax (OD405 at 10 µg/ml) in experiment [2] of 0.133 OD405.

As to “HuMab 002 Fc variant IgG4v1 (S228P; L235E) (antibody)”, in experiment [2], the Bmax (OD405 at 10 µg/ml) was 0.104 OD405. Also, in experiment [1], the % monocytes binding antibody came out at 14.5%. Moreover, the % granulocytes binding antibody in experiment [3] is 1.6%.
